This note sets out measurements from the supplement of paper PMC9112550, “Optimization of the antimicrobial peptide Bac7 by deep mutational scanning” (BMC Biology, 2022).
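Further: peptides expressed intracellularly from a pBAD plasmid library in pooled LB shake-flask culture, induced with 0.3% L-arabinose, DNA abundance read by NGS, three biological replicates, DESeq2 with apeglm shrinkage.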

The subject of this series is Escherichia coli TOP10. Kind of series: shrunken log2 fold change of peptide-encoding DNA abundance (4.5 h post-induction vs induction); higher = less antimicrobial activity (less host growth inhibition). The note with it: time post-induction: 4.5 h; library: site-saturation at positions 5, 18, 19, 20.
On to RRIRWRPPRLPRPRPRPHWNPRP, for which the “shrunken log2 fold change” value is -0.676. Then RRIRHRPPRLPRPRPRPKGWPRP, with 0.103; and RRIRRRPPRLPRPRPRPYIIPRP, with -0.427; and RRIRLRPPRLPRPRPRPRKVPRP, with 0.0909.

In the case of RRIRWRPPRLPRPRPRPWYPPRP, the “shrunken log2 fold change” value amounted to 0.0299. As to RRIRQRPPRLPRPRPRPLEPPRP, the “shrunken log2 fold change” value was -0.227. For RRIRKRPPRLPRPRPRPNNMPRP the value was -0.304; for RRIRSRPPRLPRPRPRPRCSPRP, 0.0579; for RRIRGRPPRLPRPRPRPFDTPRP, 0.151. Then RRIRQRPPRLPRPRPRPMIIPRP, with 0.0698.

In the case of RRIRRRPPRLPRPRPRPVRGPRP, the “shrunken log2 fold change” value turned out to be 0.805. For RRIRIRPPRLPRPRPRPSWTPRP the value was -0.237; for RRIRYRPPRLPRPRPRPLKRPRP, -0.234; for RRIRWRPPRLPRPRPRPHCMPRP, 0.0179. Regarding RRIRKRPPRLPRPRPRPSLHPRP, the “shrunken log2 fold change” value was determined as 0.0624. As to RRIRGRPPRLPRPRPRPKWSPRP, the “shrunken log2 fold change” value is 0.564. Then RRIRGRPPRLPRPRPRPKRKPRP, with 0.835; and RRIRVRPPRLPRPRPRPQHPPRP, with -0.0951; and RRIRLRPPRLPRPRPRPYFTPRP, with -0.468. Then RRIRFRPPRLPRPRPRPRWFPRP, with -0.111; and RRIRMRPPRLPRPRPRPFESPRP, with -0.00973; and RRIRRRPPRLPRPRPRPYYMPRP, with -0.408. RRIRRRPPRLPRPRPRPLYEPRP: the “shrunken log2 fold change” value is -0.0905. Then RRIRIRPPRLPRPRPRPQQVPRP, with 0.00944; and RRIRVRPPRLPRPRPRPAHVPRP, with 0.0119; and RRIRVRPPRLPRPRPRPWIEPRP, with -0.104. For RRIRWRPPRLPRPRPRPQFTPRP the value was -0.313; for RRIRCRPPRLPRPRPRPIKGPRP, -0.0586. Then RRIRARPPRLPRPRPRPHLFPRP, with 0.117; and RRIRPRPPRLPRPRPRPKAMPRP, with 0.000243. Regarding RRIRCRPPRLPRPRPRPMNDPRP, the “shrunken log2 fold change” value is -0.44. Then RRIRARPPRLPRPRPRPMSMPRP, with 0.0853. Then RRIRIRPPRLPRPRPRPHFDPRP, with -0.149. For RRIRTRPPRLPRPRPRPGRFPRP the value was -0.0311; for RRIRWRPPRLPRPRPRPCRFPRP, 0.0225; for RRIRERPPRLPRPRPRPMIHPRP, -0.65. For the sequence RRIRCRPPRLPRPRPRPWMTPRP, the “shrunken log2 fold change” value was -0.188.

For RRIRIRPPRLPRPRPRPHNLPRP, the “shrunken log2 fold change” value was -0.334. Regarding RRIRLRPPRLPRPRPRPTGPPRP, the “shrunken log2 fold change” value was found to be 0.298.

On to RRIRNRPPRLPRPRPRPVAPPRP, for which the “shrunken log2 fold change” value turned out to be 0.153. For RRIRWRPPRLPRPRPRPLMCPRP the value was 0.117.

For RRIRDRPPRLPRPRPRPAGDPRP, the “shrunken log2 fold change” value worked out at 0.523. RRIRWRPPRLPRPRPRPRLQPRP: the “shrunken log2 fold change” value stood at 0.642.

Consider RRIRDRPPRLPRPRPRPGMSPRP, for which the “shrunken log2 fold change” value was 0.0134.

For RRIRARPPRLPRPRPRPGLAPRP, the “shrunken log2 fold change” value stood at 1.

With RRIRTRPPRLPRPRPRPMPCPRP, the “shrunken log2 fold change” value was 0.159. Regarding RRIRKRPPRLPRPRPRPQWFPRP, the “shrunken log2 fold change” value is -0.185.

Consider RRIRHRPPRLPRPRPRPTDIPRP, for which the “shrunken log2 fold change” value is -0.668. Then RRIRHRPPRLPRPRPRPIRAPRP, with 0.0218; and RRIRTRPPRLPRPRPRPGNMPRP, with -0.0393. For the sequence RRIRERPPRLPRPRPRPCNDPRP, the “shrunken log2 fold change” value is -0.19.

Turning to RRIRQRPPRLPRPRPRPCIPPRP, the “shrunken log2 fold change” value turned out to be 0.00582.

Consider RRIRMRPPRLPRPRPRPFWNPRP, for which the “shrunken log2 fold change” value is -0.266. For RRIRWRPPRLPRPRPRPWKTPRP the value was 0.149; for RRIRDRPPRLPRPRPRPHAQPRP, -0.0623; for RRIRKRPPRLPRPRPRPVYQPRP, 0.131. Then RRIRRRPPRLPRPRPRPPNDPRP, with 0.605; and RRIRWRPPRLPRPRPRPNYVPRP, with -0.128; and RRIRHRPPRLPRPRPRPAPYPRP, with 0.296.

Consider RRIRPRPPRLPRPRPRPLKPPRP, for which the “shrunken log2 fold change” value was 0.0408. Then RRIRPRPPRLPRPRPRPNLSPRP, with -0.168; and RRIRYRPPRLPRPRPRPKEHPRP, with -0.366. For RRIRKRPPRLPRPRPRPTNLPRP the value was -0.0903. For RRIRLRPPRLPRPRPRPRFNPRP the value was -0.223.

For RRIRMRPPRLPRPRPRPKVLPRP, the “shrunken log2 fold change” value worked out at 0.0109. Regarding RRIRMRPPRLPRPRPRPSEDPRP, the “shrunken log2 fold change” value worked out at 0.974. RRIRLRPPRLPRPRPRPAYKPRP: the “shrunken log2 fold change” value was -0.00989. Consider RRIRDRPPRLPRPRPRPWLMPRP, for which the “shrunken log2 fold change” value is -0.1. For RRIRGRPPRLPRPRPRPAINPRP the value was 0.419; for RRIRFRPPRLPRPRPRPYSDPRP, -0.298. Turning to RRIRFRPPRLPRPRPRPDKCPRP, the “shrunken log2 fold change” value was -0.18. For RRIRTRPPRLPRPRPRPTACPRP the value was 0.277. For RRIRRRPPRLPRPRPRPRTSPRP the value was 0.108; for RRIRVRPPRLPRPRPRPTLVPRP, 0.0318. As for RRIRARPPRLPRPRPRPDSHPRP, the “shrunken log2 fold change” value was -0.779. For RRIRPRPPRLPRPRPRPKTVPRP the value was -0.171. As for RRIRLRPPRLPRPRPRPQVYPRP, the “shrunken log2 fold change” value is -0.11. For RRIRKRPPRLPRPRPRPHRWPRP the value was 0.00588; for RRIRFRPPRLPRPRPRPIHHPRP, -0.0432; for RRIRNRPPRLPRPRPRPRWGPRP, -0.0125. RRIRLRPPRLPRPRPRPIRRPRP: the “shrunken log2 fold change” value came to 0.0431. For RRIRQRPPRLPRPRPRPMTSPRP the value was -0.000946. For RRIRHRPPRLPRPRPRPGWLPRP the value was 0.0986; for RRIRLRPPRLPRPRPRPWRIPRP, 0.0246; for RRIRFRPPRLPRPRPRPVPGPRP, 0.1. RRIRDRPPRLPRPRPRPDKVPRP: the “shrunken log2 fold change” value was -0.159.

Consider RRIRERPPRLPRPRPRPKHYPRP, for which the “shrunken log2 fold change” value was -0.373. Then RRIRYRPPRLPRPRPRPFGSPRP, with -0.0685. For RRIRPRPPRLPRPRPRPMQHPRP the value was -0.0486; for RRIRVRPPRLPRPRPRPSAEPRP, 0.299; for RRIRSRPPRLPRPRPRPCDHPRP, -0.138. For RRIRFRPPRLPRPRPRPMYHPRP the value was -1.01; for RRIRQRPPRLPRPRPRPHRMPRP, -0.373. With RRIRFRPPRLPRPRPRPTQAPRP, the “shrunken log2 fold change” value came out at 0.442. For RRIRMRPPRLPRPRPRPNISPRP the value was -0.29; for RRIRLRPPRLPRPRPRPTDQPRP, 0.0347.

With RRIRWRPPRLPRPRPRPSVVPRP, the “shrunken log2 fold change” value was -0.00267.

Regarding RRIRSRPPRLPRPRPRPIDAPRP, the “shrunken log2 fold change” value was -0.101.

Take RRIRERPPRLPRPRPRPQVQPRP: the “shrunken log2 fold change” value was found to be 0.029. Then RRIRSRPPRLPRPRPRPQVDPRP, with -0.296. Then RRIRERPPRLPRPRPRPKAYPRP, with -0.00666; and RRIRWRPPRLPRPRPRPWFKPRP, with -0.123; and RRIRNRPPRLPRPRPRPKDTPRP, with -0.018. Then RRIRHRPPRLPRPRPRPVQPPRP, with -0.0332. In the case of RRIRLRPPRLPRPRPRPVEPPRP, the “shrunken log2 fold change” value came to 0.188. Turning to RRIRQRPPRLPRPRPRPDCKPRP, the “shrunken log2 fold change” value was -0.0311. For RRIRQRPPRLPRPRPRPNIAPRP, the “shrunken log2 fold change” value is -0.0856.

In the case of RRIRLRPPRLPRPRPRPTITPRP, the “shrunken log2 fold change” value is -0.0781. On to RRIRLRPPRLPRPRPRPSQGPRP, for which the “shrunken log2 fold change” value is 0.535. For RRIRRRPPRLPRPRPRPSIRPRP the value was -0.219; for RRIRPRPPRLPRPRPRPNHYPRP, -0.576; for RRIRPRPPRLPRPRPRPAYSPRP, -0.23.

As for RRIRTRPPRLPRPRPRPIFRPRP, the “shrunken log2 fold change” value is 0.00202. As to RRIRDRPPRLPRPRPRPDILPRP, the “shrunken log2 fold change” value came to 0.111. For RRIRHRPPRLPRPRPRPFAEPRP the value was -0.0659; for RRIRARPPRLPRPRPRPCATPRP, 1.06. As for RRIRMRPPRLPRPRPRPINNPRP, the “shrunken log2 fold change” value is -0.347. As for RRIRRRPPRLPRPRPRPGRMPRP, the “shrunken log2 fold change” value came out at 0.41. For RRIRGRPPRLPRPRPRPKVVPRP the value was 0.12.

As to RRIRYRPPRLPRPRPRPLCVPRP, the “shrunken log2 fold change” value was -0.722.

In the case of RRIRMRPPRLPRPRPRPEDMPRP, the “shrunken log2 fold change” value stood at 3.26. For RRIRIRPPRLPRPRPRPGKAPRP the value was 0.039. On to RRIRHRPPRLPRPRPRPYQEPRP, for which the “shrunken log2 fold change” value is -0.138. For RRIRSRPPRLPRPRPRPKQTPRP the value was -0.159; for RRIRNRPPRLPRPRPRPGVHPRP, 0.25.
